In patent US20170002075A1 (AbbVie / Abbott, published 2017):
Each block holds one binder with its values, some of them ahead of it.

Legend:
[1] = molecular target: T1, E. coli RAGE Construct #1, OmpA-[RAGE (23-340)]-6His (human, UniProt Q15109 23-340); test: ELISA, fragment coated at 1 µg/ml
T1 construct: Not glycosylated (E. coli); also called RAGE protein #1; E. coli-expressed sRAGE
Experimental: Antigens (purified construct #1-7 proteins) were diluted into Coating Buffer [100 mM NaHCO₃, pH 8.2] to 1 μg/ml, and 100 μl of the resulting solution was then aliquoted into a 96-well Nunc Immuno Plate (Maxi-Sorb Surface, flat bottom, catalog #439454). The plate was sealed with sealing film and incubated at 4° C. overnight. The next day, the plate wells were each washed 3 times with 150 μL PBST buffer [Sigma PBS+0.05% Tween 20]. Then 300 ul of blocking solution (3% NFDM in PBST) was added to each well. The plate was incubated for 2 hours at room temperature and shaking at 100 rpm. After the incubation step, each well was again washed three times with 150 uL PBST. […] The plate was then sealed with sealing film and incubated for 2 hours at room temperature and shaking at 100 rpm. Next the antibody solution was drained out of the wells, and each well then washed three times with 200 ul PBST. To each well then 200 ul of a 1:5000 dilution (in PBST/1% NFDM) of conjugated secondary antibody [Donkey anti-mouse HRPO conjugate, Jackson Immuno Research, Catalog #715-035-150] was added. The plate was covered and allowed to incubate for 1 hour at room temperature while shaking at 100 rpm. […] Finally, 50 μL of 2M H₂SO₄ was added to each well to stop the reaction and the A₅₄₀ₙₘ of each well was measured using a microtiter plate reader.

[2] = molecular target: T2, hRAGE (1-331) / human sRAGE 1-331, V#400 (human, UniProt Q15109 23-331); test: Biacore SPR, mAb captured via anti-mouse Fc, human sRAGE 1-331 (V#400) injected, concurrent experiment, 1:1 fit
T2 construct: also called sRAGE [RAGE (1-331)]; RAGE (antigen of the Biacore runs)
T2 sequence (Q15109 23-331): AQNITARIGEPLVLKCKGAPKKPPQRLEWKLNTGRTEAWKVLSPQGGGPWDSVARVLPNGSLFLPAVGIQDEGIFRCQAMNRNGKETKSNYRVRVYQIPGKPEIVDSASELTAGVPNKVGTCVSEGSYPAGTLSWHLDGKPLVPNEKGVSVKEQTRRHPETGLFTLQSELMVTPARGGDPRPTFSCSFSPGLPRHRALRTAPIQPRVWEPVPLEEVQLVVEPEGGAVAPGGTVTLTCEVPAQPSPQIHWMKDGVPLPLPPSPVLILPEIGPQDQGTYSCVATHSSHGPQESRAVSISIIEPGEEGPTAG
Excerpt: Biacore 2000 and Biacore T100 instruments were used to measure anti-RAGE mAb binding kinetics. The assay format for mAb affinity analysis was Fc-based capture via immobilized anti-Fc antibodies. A standard amine coupling protocol was employed to immobilize Fc-specific IgG via primary amines to the carboxy-methyl (CM) dextran surface of CM5 sensorchips (Biacore). For the study of mouse anti-RAGE mAbs, anti-mouse Fc (Biacore, anti-mouse, BR-1005-14) was used as the immobilized capture reagent and for the study of humanized anti-RAGE mAbs, anti-human Fc (Pierce 31125) was used as the immobilized capture reagent. An automated protocol, available on the Biacore 2000 and Biacore T100, was used to immobilize 8000-10000 RU of capture reagent in all 4 flowcells of the sensorchip. Briefly, the CM-dextran surfaces were activated by freshly prepared 1:1 50 mM N-hydroxysuccinimide (NHS):200 mM 3-(N,N-dimethylamino) propyl-N-ethylcarbodiimide (EDC). Then the anti-Fc IgG capture reagent (20 ug/ml in 10 mM sodium acetate, pH4.5) was applied to the surface followed by deactivation of the surface and blocking of the residual reactive sites with 1M ethanolamine (pH 8.5).
Data were processed using either Biacore evaluation software or Scrubber 2.0 software (BioLogic Software). Briefly, the data were double referenced by first, subtracting the signal from the reference cell and second, by subtracting the signal from buffer-only injections. The double referenced data for the RAGE injection series were then fit globally to a 1:1 (Langmuir) binding model, which included a mass transfer term, to determine the binding kinetic rate constants, kₐ and kd, and the affinity, KD (kₐ=kₒₙ; kd=koff)

[3] = molecular target: T3, recombinant human RAGE (plate coat of the competition ELISA of Example 1.4); test: competition ELISA on plates coated with recombinant human RAGE (2 µg/mL); competitor: biotinylated hybridoma-derived 4E5 (4E5-biotin), streptavidin-HRP, OD 450 nm; the unit comes from the axis 'Log MAbs (M)'
T3 construct: not shown: The carrier of the coated preparation, if it had one
T3 sequence (chain, as listed by the source limits assumed): as the sequence (Q15109 23-331) above
Experimental: The purified chimeric anti-human RAGE monoclonal antibodies were tested for their ability to bind human RAGE in a competition ELISA. […] Equal volumes (50 μL) of each recombinant chimeric anti-human RAGE monoclonal antibodies or hybridoma-derived anti-human RAGE monoclonal antibodies and each corresponding biotinylated hybridoma-derived anti-RAGE mAbs were mixed. 50 μL of this mixture was then added to ELISA plates pre-coated with recombinant human RAGE at 2 μg/mL and incubated for 1.5 hours at room temperature. Wells were washed three times with PBS+0.05% Tween-20. Streptavidin HRP (1 mg/mL) was diluted 1:16000 in PBST+10% Superblock; 50 µL/well was added and the plates incubated for 1 hour at room temperature. Plates were washed 3 times with PBS+0.05% Tween-20. 50 µL of TMB solution (Sigma, St Louis, Mo.) was added to each well and incubated for 10 minutes at room temperature. The reaction was stopped by addition of IN sulphuric acid. Plates were read spectrophotometrically at a wavelength of 450 nm.

mouse RAGE (Mu-RAGE) = mouse RAGE (Mu-RAGE) (mouse, UniProt Q62151 23-340, limits assumed); test: Biacore SPR (Table 7, column Mouse-RAGE); paragraph 283: 'Table 7 shows that 4E5 did not bind to mouse RAGE (Mu-RAGE)'
Chain of mouse RAGE (Mu-RAGE) (Q62151 23-340 limits assumed): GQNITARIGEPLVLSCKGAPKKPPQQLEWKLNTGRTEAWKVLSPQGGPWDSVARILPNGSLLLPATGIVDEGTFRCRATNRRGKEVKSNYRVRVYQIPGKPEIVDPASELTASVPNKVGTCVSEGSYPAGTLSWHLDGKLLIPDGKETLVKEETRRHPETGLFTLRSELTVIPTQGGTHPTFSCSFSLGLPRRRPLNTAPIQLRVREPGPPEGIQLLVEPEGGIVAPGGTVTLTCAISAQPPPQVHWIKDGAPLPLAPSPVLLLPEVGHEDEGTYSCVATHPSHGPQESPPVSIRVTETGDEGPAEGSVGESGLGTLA

T1 sequence (Q15109 other isoform, or with tags, fused parts or gaps limits assumed): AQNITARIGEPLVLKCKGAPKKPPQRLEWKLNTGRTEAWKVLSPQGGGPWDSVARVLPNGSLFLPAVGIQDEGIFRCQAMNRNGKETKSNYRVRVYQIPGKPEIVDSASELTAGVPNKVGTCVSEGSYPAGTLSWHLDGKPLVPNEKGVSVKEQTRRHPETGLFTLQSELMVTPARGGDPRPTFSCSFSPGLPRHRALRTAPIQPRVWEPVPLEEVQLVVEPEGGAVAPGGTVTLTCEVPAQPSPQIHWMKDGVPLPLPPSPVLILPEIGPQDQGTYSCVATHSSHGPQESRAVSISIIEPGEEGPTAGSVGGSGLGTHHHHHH

binding result [1]: no binding
B1: anti-human RAGE monoclonal antibody 7F9 (murine, hybridoma-derived) (antibody, V domains shown)
VH: EEKLEESGGGLVQLGGSMKISCVASGFTLSNYWMDWVRQSPEKGLEWIAEIRLKSNYYSTHYAESVKGRFSISRDDSKGSVSLQMDNLTAEDTGIYFCARNAYWYFDVWGTGTTVTVSS
VL: DIVMTQSHKFMSTSVGDRVSATCKASQDVGTSVAWYQQKLGQSPKLLIYWTSTRHTGVPDRFTGSGSGTDFTLTISNVQSEDLADYFCQQYNNYPLTFGDGTKLELKR
notes: also called mAb7F9; MAb 7F9

Kd [2]: 0.068 nM
koff [2]: 0.0013 s⁻¹
kon [2]: 1.8e+07 M⁻¹ s⁻¹
B2: anti-human RAGE monoclonal antibody 11E6 (murine, hybridoma-derived) (antibody, V domains shown)
VH: QIQLVQSGPELKKPGETVKISCKASGYTFTNFGMNWVKQAPGKGLKWMGYINTNTGESIYSEEFKGRFAFSLETSASTAYLQINNLKNEDTATYFCARSRMVTAYGMDYWGQGTSVTVSS
VL: DIVMTQSQKFMSTSVGDRVSITCKASQNVGTAVAWYQQRPGQSPKLLIFSASNRYTGVPDRFTGSGSGTDFTLTLSNMQPEDLADYFCQQYSSYPLTFGVGTKLELKR
notes: also called mAb11E6; ML37-11E6

EC50 [3]: 244 nM
binding result (mouse RAGE (Mu-RAGE)): no binding
B3: anti-human RAGE monoclonal antibody 4E5 (murine, hybridoma-derived) (antibody, V domains shown)
VH: QVQLQQSGAELVRPGTSVKVSCKASGYAFNNYLIEWIKQRPGQGLEWIGVINPGSGGTNHNEKFKVKATLTADKSSSTAYIQLSSLTSDDSAVYFCARSAGTARARFAYWGQGTLVTVSA
VL: DIQMTQSPSSLSASLGERVSLTCRASQDIGSSLNWLQQEPDGTIKRLIYATSSLDSGVPKRFSGSRSGSDYSLTISSLESEDFVDYYCLQYASFPFTFGSGTKLEIKR
notes: also called mAb4E5; ML37-4E5
